The target in data set [1] is T1, σNS (sigma NS) (Avian reovirus strain 1733) (UniProt W8NR44).
T1 sequence: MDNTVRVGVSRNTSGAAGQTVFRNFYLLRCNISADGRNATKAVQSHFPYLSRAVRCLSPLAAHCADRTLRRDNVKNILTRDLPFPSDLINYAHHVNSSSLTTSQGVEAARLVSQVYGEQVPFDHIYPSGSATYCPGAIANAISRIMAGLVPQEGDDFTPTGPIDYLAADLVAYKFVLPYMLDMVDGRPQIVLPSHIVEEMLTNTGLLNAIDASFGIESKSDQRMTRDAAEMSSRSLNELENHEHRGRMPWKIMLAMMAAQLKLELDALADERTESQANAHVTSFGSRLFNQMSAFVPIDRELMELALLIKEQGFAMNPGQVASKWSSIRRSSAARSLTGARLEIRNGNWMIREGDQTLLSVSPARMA
The data set is described as follows: fluorescence anisotropy. The conditions noted are these: FA: 10 mM HEPES-NaOH pH 7.5, 150 mM NaCl, 21 C, 1 nM RNA, 30 min; smFRET in same buffer at 37 C; SEC 25 mM HEPES-Na pH 7.8, 150 mM NaCl, 4 C. On the technique in general: Polarisation of emitted light reports the rotation of a fluorescent probe.

For data set [2], the target named is T1, σNS (sigma NS) (Avian reovirus strain 1733). The data set is described as follows: ensemble FRET. The following applies: FA: 10 mM HEPES-NaOH pH 7.5, 150 mM NaCl, 21 C, 1 nM RNA, 30 min; smFRET in same buffer at 37 C; SEC 25 mM HEPES-Na pH 7.8, 150 mM NaCl, 4 C.
The target is the same in data set [3]. Briefly: fluorescence anisotropy. The conditions noted are these: FA: 10 mM HEPES-NaOH pH 7.5, 150 mM NaCl, 21 C, 1 nM RNA, 30 min; smFRET in same buffer at 37 C; SEC 25 mM HEPES-Na pH 7.8, 150 mM NaCl, 4 C. This is another data set of the same source.
For data set [4] the target is unchanged. Briefly: FCS. The following applies: FA: 10 mM HEPES-NaOH pH 7.5, 150 mM NaCl, 21 C, 1 nM RNA, 30 min; smFRET in same buffer at 37 C; SEC 25 mM HEPES-Na pH 7.8, 150 mM NaCl, 4 C.
The target in data set [5] is avian reovirus σNS (ARV strain 1733), full-length recombinant (avian reovirus strain 1733). The data set is described as follows: AUC.
The target is the same in data set [6]. Briefly: SAXS.
The target is the same in data set [7]. The data set is described as follows: native MS.
Data set [8] shares this target. Briefly: native MS. This is another data set of the same source.

“And” between values parts separate entries of the source, which are not always exact repeats. Equal values may be shown once.

Consider 20-nt ssDNA, for which the Kd in data set [1] came out at 24.5 nM.
Consider “ATAGGTATAACAGTTAACGTATGCTATACGCTAATAGCATACGTTT [46-nt stem-loop]”, for which the dissociation constant Kd stood at 1100 nM in data set [2] and 333 nM in data set [3].
For the substance GACCUAUUCUCUUUUUCUCU [20-nt RNA], the Kd was determined as 39.5 nM in data set [4], 26.5 nM in data set [3] and 35 nM in data set [1].
In data set [3], “GGGAGACCUAUUCUCUUUUUCUCUCCUUUUCCCCCCUGUUGCUUUAUUUUCCUUCUUUGCCUUUUUCUCUCUUUUUUUUUCUUUUUUCCCUUUCUGCUUUCCUCCCCUAUUCUCCCCUCUU [120-nt RNA]” yielded a Kd of 25 nM.
Consider MS2 RNA (3569 nt), for which the Kd in data set [4] was 250 nM.
Take “avian reovirus σNS (ARV strain 1733), full-length recombinant (natural protein)”: the stoichiometry N in data set [5] is 6; in data set [6], 6; in data set [7], 6 and 2 and 4; in data set [8] it was 8.

For orientation: Kd means the constant that tells how readily two partners part at equilibrium. Low values mean higher affinity, high ones lower affinity. As a reminder, the stoichiometry N is the number of molecules, sites or subunits per partner or assembly.

Values taken from paper PMC4538827.
